The target in the experiment is T1, recombinant human (rh)4-1BB Fc chimera protein (human, UniProt Q07011 24-186).
T1 construct: human 4-1BB (CD137/TNFRSF9), the part of it in the R&D Systems Fc chimera; Glycosylated; also called CD137; TNFRSF9; source: bought: R&D Systems
Kind of experiment: fluorescence polarisation; fluorescence anisotropy in solution, by inhibition: fixed galectin (0.2-2.5 µM) with 0.02 µM of its fluorescent probe, in the presence of 0.07-4.75 µM (rh)4-1BB Fc or (rh)IgG1 Fc; average Kd from the points with ≥ 15% inhibition. Particulars: both partners purified. For orientation: In fluorescence polarisation assays a small probe gives low polarisation when free and higher when bound to something large.

For orientation: Kd means a measure of binding affinity in units of concentration.

T1 sequence (Q07011 24-186, change not shown): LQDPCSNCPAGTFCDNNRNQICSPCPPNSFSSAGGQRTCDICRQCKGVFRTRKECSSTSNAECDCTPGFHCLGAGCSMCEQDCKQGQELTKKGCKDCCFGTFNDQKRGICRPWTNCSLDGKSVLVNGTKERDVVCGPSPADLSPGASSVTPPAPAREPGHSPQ

B1: recombinant human galectin-2 (natural protein, UniProt P05162 1-132, looked up)
chain: MTGELEVKNMDMKPGSTLKITGSIADGTDGFVINLGQGTDKLNLHFNPRFSESTIVCNSLDGSNWGQEQREDHLCFSPGSEVKFTVTFESDKFKVKLPDGHELTFPNRLGHSHLSYLSVRGGFNMSSFKLKE
notes: human galectin-2; also called Gal-2
With B1, the Kd was 6.12 µM.

Source of the values: article PMC9263355, “Galectin-3 Decreases 4-1BBL Bioactivity by Crosslinking Soluble and Membrane Expressed 4-1BB” (Frontiers in Immunology, 2022).
